US20090166224A1 (published 2009)

Target: T1, IG MU CHAIN C REGION (human, UniProt P01871-1 1-453)
T1 construct: domain: C region; Polyclonal serum IgM, identified through its constant region; variable regions and light chains not defined
T1 heavy (looked up): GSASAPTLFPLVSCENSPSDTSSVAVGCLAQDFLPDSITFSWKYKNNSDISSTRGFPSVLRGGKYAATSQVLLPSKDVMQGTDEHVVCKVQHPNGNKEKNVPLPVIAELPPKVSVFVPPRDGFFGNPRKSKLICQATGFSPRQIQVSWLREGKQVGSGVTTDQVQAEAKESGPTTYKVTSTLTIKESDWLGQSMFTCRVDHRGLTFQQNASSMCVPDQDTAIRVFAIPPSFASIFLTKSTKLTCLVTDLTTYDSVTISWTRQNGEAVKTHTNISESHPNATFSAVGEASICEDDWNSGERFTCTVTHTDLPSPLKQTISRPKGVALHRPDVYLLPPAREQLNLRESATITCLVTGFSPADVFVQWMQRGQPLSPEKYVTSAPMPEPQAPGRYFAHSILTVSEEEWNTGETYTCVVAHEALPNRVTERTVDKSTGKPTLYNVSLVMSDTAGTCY
Assay: human serum on Con A/WGA/Jacalin column, lectin-specific displacer fraction, LC-MS/MS; grade = SEQUEST rank group (+ = ranks 1-5, ++++ = 16-20)

B1: wheat germ agglutinin (WGA), agarose-bound (other, UniProt P10968 27-197, looked up)
chain: QRCGEQGSNMECPNNLCCSQYGYCGMGGDYCGKGCQNGACWTSKRCGSQAGGATCTNNQCCSQYGYCGFGAEYCGAGCQGGPCRADIKCGSQAGGKLCPNNLCCSQWGFCGLGSEFCGGGCQSGACSTDKPCGKDAGGRVCTNNYCCSKWGSCGIGPGYCGAGCQSGGCDG
modifications: immobilized on agarose
notes: Lectin; released with N-acetyl-glucosamine; Coated on the plate in the lectin ELISA
  SEQUEST ranking (relative abundance in the WGA displacement fraction): 6 to 10 rank
